The values below come from patent US20210032365A1 (Chugai, published 2021).

Residue numbers refer to the chain shown, from its start.

This assay addresses T1, human C1s (human, UniProt P09871 16-688).
T1 construct: also called hC1s; serum-derived human C1s (CompTech)
T1 sequence: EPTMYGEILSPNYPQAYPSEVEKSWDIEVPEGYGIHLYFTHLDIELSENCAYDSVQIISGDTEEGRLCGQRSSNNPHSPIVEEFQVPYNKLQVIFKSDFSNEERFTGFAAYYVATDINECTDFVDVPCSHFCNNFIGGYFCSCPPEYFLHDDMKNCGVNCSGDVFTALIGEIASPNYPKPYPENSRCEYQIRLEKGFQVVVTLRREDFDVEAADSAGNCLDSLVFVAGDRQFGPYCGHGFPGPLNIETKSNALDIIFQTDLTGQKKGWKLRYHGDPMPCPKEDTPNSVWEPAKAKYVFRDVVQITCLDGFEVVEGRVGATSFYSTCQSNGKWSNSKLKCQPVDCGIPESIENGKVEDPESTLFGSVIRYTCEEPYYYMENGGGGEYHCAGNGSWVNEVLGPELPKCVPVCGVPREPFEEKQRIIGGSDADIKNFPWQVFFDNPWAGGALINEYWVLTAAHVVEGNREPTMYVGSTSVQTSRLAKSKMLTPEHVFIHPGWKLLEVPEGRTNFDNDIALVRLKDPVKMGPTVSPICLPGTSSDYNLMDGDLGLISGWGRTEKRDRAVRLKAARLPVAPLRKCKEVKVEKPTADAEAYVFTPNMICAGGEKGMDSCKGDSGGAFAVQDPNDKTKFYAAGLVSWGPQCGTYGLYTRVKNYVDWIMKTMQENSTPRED
Kind of assay: SPR, Ab captured; pH 7.4, 1.2 mM Ca. Here is the method:
Each antibody was captured onto the sensor surface by protein A/G. Antibody capture levels were aimed at 200 resonance unit (RU). Serum-derived human C1s (CompTech) or recombinant C1s prepared in EXAMPLE 1 was injected at 50 nM, followed by dissociation. The sensor surface was regenerated in each cycle with 10 mM Glycine-HCl, pH 1.5. […] The ratio of KD 5.8+ to KD 7.4+(“KD 5+/7+”) and that of KD 5.8− to KD 7.4+(“KD 5−/7+”) were calculated. When the KD 5+/7+ or KD 5−/7+ of a variant is larger than that of the parent antibody IPN009VH2-SG4GK/IPN009VK3-SK1, that variant is considered to be “pH”- or “pH and Ca”-dependent, respectively. When binding response in 5(+) buffer and/or in 5(−) buffer of a variant is much lower than that of IPN09VH2/IPN009VK3, that variant is also considered as “pH”- and/or “pH and Ca”-dependent. Therefore, such mutations are effective to generate “pH”- and/or “pH and Ca”-dependent antibody. To further enhance “pH” and/or “pH and Ca” dependency, a combination of histidine mutations was conducted. Antibodies with combinations of histidine mutations were evaluated using Biacore by the method described above.
C1_1IPN92H0033 (SEQ ID NO: 17)-SG4GK/IPN93L0024 (SEQ ID NO: 18)-SK1 (IPN92H0033/IPN93L0024) was selected for further optimization. Histidine, Lysine, Arginine, aspartic acid, glutamic acid, and glutamine scanning was conducted for CDRs and certain positions of FRs of IPN92H0033/IPN93L0024. Variants with a mutation were generated and purified, and evaluated using Biacore by the method mentioned above. All variants were evaluated using Biacore as mentioned above. Mutations that improved “pH” and/or “pH and Ca” dependency were selected for the combination.

B1: C1_IPN92H0033-SG4GK/IPN93L0072-SK1 (antibody, human IgG4 S228P, kappa, name in Kabat numbering, V domains shown)
VH: EVMLVESGGGLVKPGGSLRLSCAASGFTFSNYAMSWVRQAPGKGLEWVATISSGGSHTYYLDSVKGRFTISRDNSKDTLYLQMNSLRAEDTALYYCARLFTGHAMDYWGQGTLVTVSS
VL: QIVLTQSPATLSLSPGERATLSCTASSSVKSSYLHWYQQKPGKAPKLWIYSTSNLASGVPSRFSGSGSGTDYTLTISSLQPEDFATYYCHQYYRLHPITFGQGTKLEIKR
notes: also called IPN92H0033/IPN93L0072
Turning to B1, the Kd was determined as 1.37 nM, the koff stood at 0.000567 s⁻¹ and the kon came out at 413000 M⁻¹ s⁻¹.

B2: C1_IPN92H0166-SG4GK/IPN93L0024-SK1 (antibody, human IgG4 S228P, kappa, name in Kabat numbering, V domains shown)
VH: B1 VH with L61E
VL: B1 VL with K30S
notes: also called IPN92H0166/IPN93L0024
Consider B2, for which the Kd came to 1.76 nM, the koff came to 0.000518 s⁻¹ and the on-rate (kon) is 294000 M⁻¹ s⁻¹.

B3: C1_IPN92H0079-SG4GK/IPN93L0024-SK1 (antibody, human IgG4 S228P, kappa, name in Kabat numbering, V domains shown)
VH: B1 VH with Y32K
VL: B1 VL with K30S
notes: also called IPN92H0079/IPN93L0024
Consider B3, for which the Kd was 3.36 nM, the dissociation rate constant (koff) came to 0.00125 s⁻¹ and the kon came to 373000 M⁻¹ s⁻¹.

B4: C1_IPN92H0117-SG4GK/IPN93L0024-SK1 (antibody, human IgG4 S228P, kappa, name in Kabat numbering, V domains shown)
VH: B1 VH with S53Q
VL: B1 VL with K30S
notes: also called IPN92H0117/IPN93L0024
As to B4, the Kd came to 3.41 nM, the koff stood at 0.000863 s⁻¹ and the kon stood at 253000 M⁻¹ s⁻¹.

B5: C1_IPN92H0091-SG4GK/IPN93L0024-SK1 (antibody, human IgG4 S228P, kappa, name in Kabat numbering, V domains shown)
VH: B1 VH with M34K
VL: B1 VL with K30S
notes: also called IPN92H0091/IPN93L0024
In the case of B5, the Kd is 2.69 nM, the koff is 0.000746 s⁻¹ and the on-rate constant (kon) was 277000 M⁻¹ s⁻¹.

B6: C1_IPN92H0188-SG4GK/IPN93L0024-SK1 (antibody, human IgG4 S228P, kappa, name in Kabat numbering, V domains shown)
VH: B1 VH with K65D
VL: B1 VL with K30S
notes: also called IPN92H0188/IPN93L0024
As for B6, the equilibrium dissociation constant (Kd) came out at 2.03 nM, the koff is 0.000551 s⁻¹ and the kon came out at 271000 M⁻¹ s⁻¹.

B7: C1_IPN92H0144-SG4GK/IPN93L0024-SK1 (antibody, human IgG4 S228P, kappa, name in Kabat numbering, V domains shown)
VH: B1 VH with H57K
VL: B1 VL with K30S
notes: also called IPN92H0144/IPN93L0024
Turning to B7, the Kd was 3.68 nM, the koff turned out to be 0.00126 s⁻¹ and the on-rate (kon) worked out at 343000 M⁻¹ s⁻¹.

B8: C1_IPN92H0165-SG4GK/IPN93L0024-SK1 (antibody, human IgG4 S228P, kappa, name in Kabat numbering, V domains shown)
VH: B1 VH with L61D
VL: B1 VL with K30S
notes: also called IPN92H0165/IPN93L0024
With B8, the Kd is 1.77 nM, the dissociation rate constant (koff) is 0.000512 s⁻¹ and the kon was 289000 M⁻¹ s⁻¹.

B9: C1_IPN92H0145-SG4GK/IPN93L0024-SK1 (antibody, human IgG4 S228P, kappa, name in Kabat numbering, V domains shown)
VH: B1 VH with H57R
VL: B1 VL with K30S
notes: also called IPN92H0145/IPN93L0024
As for B9, the equilibrium dissociation constant (Kd) amounted to 4.71 nM, the off-rate constant (koff) was 0.00157 s⁻¹ and the on-rate (kon) came out at 333000 M⁻¹ s⁻¹.

B10: C1_IPN92H0033-SG4GK/IPN93L0090-SK1 (antibody, human IgG4 S228P, kappa, name in Kabat numbering, V domains shown)
VH: B1 VH
VL: B1 VL with K30S, Y33K
notes: also called IPN92H0033/IPN93L0090
With B10, the equilibrium dissociation constant (Kd) turned out to be 1.4 nM, the koff came out at 0.000676 s⁻¹ and the on-rate (kon) turned out to be 482000 M⁻¹ s⁻¹.

B11: C1_IPN92H0194-SG4GK/IPN93L0024-SK1 (antibody, human IgG4 S228P, kappa, name in Kabat numbering, V domains shown)
VH: B1 VH with G66E
VL: B1 VL with K30S
notes: also called IPN92H0194/IPN93L0024
For B11, the dissociation constant Kd came out at 0.885 nM, the off-rate (koff) came out at 0.000468 s⁻¹ and the kon turned out to be 529000 M⁻¹ s⁻¹.

B12: C1_IPN92H0162-SG4GK/IPN93L0024-SK1 (antibody, human IgG4 S228P, kappa, name in Kabat numbering, V domains shown)
VH: B1 VH with Y60K
VL: B1 VL with K30S
notes: also called IPN92H0162/IPN93L0024
Take B12: the equilibrium dissociation constant (Kd) came out at 1.8 nM, the off-rate constant (koff) was determined as 0.000545 s⁻¹ and the kon worked out at 303000 M⁻¹ s⁻¹.

B13: C1_IPN92H0261-SG4GK/IPN93L0091-SK1 (antibody, human IgG4 S228P, kappa, name in Kabat numbering, V domains shown)
VH: B1 VH with Y60E, G102K
VL: B1 VL with K30S, Y33R
notes: also called IPN92H0261/IPN93L0091
With B13, the Kd turned out to be 0.985 nM, the dissociation rate constant (koff) was 0.000774 s⁻¹ and the kon is 786000 M⁻¹ s⁻¹.

B14: C1_IPN92H0193-SG4GK/IPN93L0024-SK1 (antibody, human IgG4 S228P, kappa, name in Kabat numbering, V domains shown)
VH: B1 VH with G66D
VL: B1 VL with K30S
notes: also called IPN92H0193/IPN93L0024
As for B14, the equilibrium dissociation constant (Kd) was found to be 0.925 nM, the koff was 0.000474 s⁻¹ and the on-rate constant (kon) was 513000 M⁻¹ s⁻¹.

B15: C1_IPN92H0061-SG4GK/IPN93L0024-SK1 (antibody, human IgG4 S228P, kappa, name in Kabat numbering, V domains shown)
VH: B1 VH with F29K
VL: B1 VL with K30S
notes: also called IPN92H0061/IPN93L0024
Consider B15, for which the Kd is 6.85 nM, the koff was determined as 0.00161 s⁻¹ and the kon came out at 236000 M⁻¹ s⁻¹.

B16: C1_IPN92H0231-SG4GK/IPN93L0024-SK1 (antibody, human IgG4 S228P, kappa, name in Kabat numbering, V domains shown)
VH: B1 VH with G102K
VL: B1 VL with K30S
notes: also called IPN92H0231/IPN93L0024
Consider B16, for which the dissociation constant (Kd) was found to be 1.3 nM, the koff was 0.000577 s⁻¹ and the on-rate (kon) worked out at 444000 M⁻¹ s⁻¹.

B17: C1_IPN92H0156-SG4GK/IPN93L0024-SK1 (antibody, human IgG4 S228P, kappa, name in Kabat numbering, V domains shown)
VH: B1 VH with Y59K
VL: B1 VL with K30S
notes: also called IPN92H0156/IPN93L0024
With B17, the dissociation constant Kd stood at 2.12 nM, the koff worked out at 0.000771 s⁻¹ and the kon was 364000 M⁻¹ s⁻¹.

B18: C1_IPN92H0157-SG4GK/IPN93L0024-SK1 (antibody, human IgG4 S228P, kappa, name in Kabat numbering, V domains shown)
VH: B1 VH with Y59R
VL: B1 VL with K30S
notes: also called IPN92H0157/IPN93L0024
For B18, the Kd was 2.03 nM, the koff came to 0.000689 s⁻¹ and the on-rate constant (kon) came to 340000 M⁻¹ s⁻¹.

B19: C1_IPN92H0159-SG4GK/IPN93L0024-SK1 (antibody, human IgG4 S228P, kappa, name in Kabat numbering, V domains shown)
VH: B1 VH with Y60D
VL: B1 VL with K30S
notes: also called IPN92H0159/IPN93L0024
As to B19, the dissociation constant Kd turned out to be 2.06 nM, the off-rate constant (koff) turned out to be 0.000621 s⁻¹ and the kon was found to be 302000 M⁻¹ s⁻¹.

B20: C1_IPN92H0232-SG4GK/IPN93L0024-SK1 (antibody, human IgG4 S228P, kappa, name in Kabat numbering, V domains shown)
VH: B1 VH with G102R
VL: B1 VL with K30S
notes: also called IPN92H0232/IPN93L0024
B20: the Kd was found to be 1.5 nM, the dissociation rate constant (koff) was 0.000609 s⁻¹ and the on-rate constant (kon) is 406000 M⁻¹ s⁻¹.

B21: C1_IPN92H0279-SG4GK/IPN93L0091-SK1 (antibody, human IgG4 S228P, kappa, name in Kabat numbering, V domains shown)
VH: B1 VH with Y60E, G66E, G102K
VL: B1 VL with K30S, Y33R
notes: also called IPN92H0279/IPN93L0091
For B21, the Kd was 0.686 nM, the dissociation rate constant (koff) is 0.000897 s⁻¹ and the on-rate (kon) was 1.31e+06 M⁻¹ s⁻¹.

B22: C1_IPN92H0160-SG4GK/IPN93L0024-SK1 (antibody, human IgG4 S228P, kappa, name in Kabat numbering, V domains shown)
VH: B1 VH with Y60E
VL: B1 VL with K30S
notes: also called IPN92H0160/IPN93L0024
Take B22: the Kd came out at 1.52 nM, the koff was 0.000558 s⁻¹ and the kon came out at 368000 M⁻¹ s⁻¹.

B23: C1_IPN92H0147-SG4GK/IPN93L0024-SK1 (antibody, human IgG4 S228P, kappa, name in Kabat numbering, V domains shown)
VH: B1 VH with T58D
VL: B1 VL with K30S
notes: also called IPN92H0147/IPN93L0024
As to B23, the Kd came out at 2.05 nM, the dissociation rate constant (koff) worked out at 0.000765 s⁻¹ and the kon is 374000 M⁻¹ s⁻¹.

B24: C1_IPN92H0253-SG4GK/IPN93L0024-SK1 (antibody, human IgG4 S228P, kappa, name in Kabat numbering, V domains shown)
VH: B1 VH with D106K
VL: B1 VL with K30S
notes: also called IPN92H0253/IPN93L0024
In the case of B24, the Kd came to 0.121 nM, the off-rate constant (koff) is 6.9e-05 s⁻¹ and the kon turned out to be 569000 M⁻¹ s⁻¹.
